Bridge positions count the residues as written; N and C are the ends. Ends that are not written are not given here.
B1: SEQ ID NO: 31 (peptide)
peptide: Ac-TQDAEDNTASF-NH2
B2: SEQ ID NO: 24 (peptide)
peptide: Ac-TQDAEDNTAS-NH2
B3: SEQ ID NO: 26 (peptide)
peptide: Ac-TQDPEDNTAS-NH2
B4: SEQ ID NO: 46 (peptide)
peptide: TQDPEDNTAS
modifications: Head-to-tail cyclization
notes: cyclic peptide
B5: SEQ ID NO: 25 (peptide)
peptide: Ac-TQDAEDPTAS-NH2
B6: SEQ ID NO: 40 (peptide)
peptide: TQDAEDN
modifications: Head-to-tail cyclization
notes: cyclic peptide; also called TQDAEDN; cyclo[Thr-Gln-Asp-Ala-Glu-Asp-Asn]
B7: SEQ ID NO: 45 (peptide)
peptide: QDAEDNT
modifications: Head-to-tail cyclization
notes: cyclic peptide; also called QDAEDNT; cyclo[Gln-Asp-Ala-Glu-Asp-Asn-Thr]
B8: SEQ ID NO: 06 (peptide)
peptide: Ac-TQDAEDN-NH2
notes: also called TQDAEDN
B9: SEQ ID NO: 14 (peptide)
peptide: Ac-TQDPEDN-NH2
notes: also called TQDPEDN
B10: SEQ ID NO: 23 (peptide)
peptide: Ac-QDAEDNTAS-NH2
B11: SEQ ID NO: 03 (peptide)
peptide: Ac-TQDPED-NH2
B12: SEQ ID NO: 05 (peptide)
peptide: Ac-QDAEDN-NH2
B13: SEQ ID NO: 22 (peptide)
peptide: Ac-TQDAEDPTA-NH2
B14: SEQ ID NO: 33 (peptide)
peptide: Ac-TQDAEDNTASH-NH2
B15: SEQ ID NO: 17 (peptide)
peptide: Ac-TQDAEDNTV-NH2
B16: SEQ ID NO: 47 (peptide)
peptide: Ac-TQDPAED-NH2
B17: SEQ ID NO: 49 (peptide)
peptide: Ac-TQDAEDNTQD-NH2
B18: SEQ ID NO: 48 (peptide)
peptide: Ac-TQDPAEDN-NH2
B19: SEQ ID NO: 50 (peptide)
peptide: YRVRFLAKENVTQDAEDN
notes: Printed as 'Without modification'; also called Positive control group
B20: SEQ ID NO: 36 (peptide)
peptide: Ac-TQDAEDNTVSFLQ-NH2
B21: SEQ ID NO: 04 (peptide)
peptide: Ac-TQDAED-NH2
B22: SEQ ID NO: 15 (peptide)
peptide: Ac-TQDAEDNT-NH2
B23: SEQ ID NO: 42 (peptide)
peptide: TQDAEDNK
modifications: lactam 3-8
B24: SEQ ID NO: 41 (peptide)
peptide: TQDPEDN
modifications: Head-to-tail cyclization

How the values were obtained:
[1] = target: TSP-1 protein expressed by PMA-differentiated THP-1 macrophage-like cells (UniProt P07996 19-1170); assay: cell-based or functional assay
[2] = target: T1, TSP-1 protein (novoprotein, Catalog No. CU45) (UniProt P07996 19-1170, limits assumed); assay: competition ELISA, TSP-1 coated, CD36-Fc as competitor, peptide 0-100 µM
T1 construct: Bought protein coated on the ELISA plate; also called Thrombospondin-1
Method: (§1) ELISA assay was performed to detect the ability of the polypeptides to block the binding of TSP-1 protein to CD36, a TSP-1 receptor protein. TSP-1 protein (novoprotein, Catalog No. CU45) was diluted to 2 μg/mL using 100 mM carbonate buffer and added to sample wells (100 μL/well) of a 96-well ELISA plate (Thermo, Catalog No. 437111), and incubated overnight at 4° C.; after washing the plate twice using 1×PBST wash solution, 200 μL of 1.5% BSA (Sigma, Catalog No. B2064) was added to each well, and incubated at 37° C. for 2 h; after washing the plate 3 times using 1×PBST wash solution, the analytes were added (100 μL/well, 3 replicate wells; for the control group, 0.25 μg/mL of Fc-tagged CD36 protein (R&D Systems, Catalog No. 1955-CD-050); and for the polypeptide-treated groups, a mixture containing Fc-tagged CD36 protein and polypeptide at final concentrations of 0.25 μg/mL and 100 μM, respectively), and incubated at 37° C. for 3 h. After washing the plate 5 times using 1×PBST wash solution, a 1:500 dilution solution of FITC-labeled anti-Fc-tagged antibody (Beyotime, Catalog No. A0556) was added, and incubated for 1 h at 37° C.; after washing the plate 5 times using 1×PBST wash solution, a multifunctional ELISA instrument (TECAN, model: Infinite 200 Pro) was used to detect the intensity of FITC fluorescence signal in each sample well. The ability of the polypeptides to block CD36 binding to TSP-1 protein (Table 2-1) was assessed by calculating the ratio of the fluorescence signal from the polypeptide-treated groups to that of the control group, allowing for the determination of the blocking rate of the polypeptides in inhibiting CD36 binding to TSP-1 protein, i.e., (fluorescence signal of the control group-fluorescence signal of the polypeptide-treated group)/fluorescence signal of the control group×100%. Based on the blocking rate results obtained at the single concentration and on the polypeptide molecule properties, the preferred polypeptide molecules were assayed for concentration dependence (at 0 μM, 0.5 μM, 1 μM, 5 μM, 10 μM, and 100 μM), and IC₅₀ values of the polypeptides for blocking CD36 binding to TSP-1 protein were determined to further assess the abilities of the preferred polypeptide molecules to block the binding of CD36 to TSP-1 (Table 2-2).

[3] = target: T1, TSP-1 protein (novoprotein, Catalog No. …); assay: competition ELISA, TSP-1 coated, CD36-Fc 0.25 µg/mL as competitor, peptide 100 µM
Method: as §1

T1 sequence (P07996 19-1170 limits assumed): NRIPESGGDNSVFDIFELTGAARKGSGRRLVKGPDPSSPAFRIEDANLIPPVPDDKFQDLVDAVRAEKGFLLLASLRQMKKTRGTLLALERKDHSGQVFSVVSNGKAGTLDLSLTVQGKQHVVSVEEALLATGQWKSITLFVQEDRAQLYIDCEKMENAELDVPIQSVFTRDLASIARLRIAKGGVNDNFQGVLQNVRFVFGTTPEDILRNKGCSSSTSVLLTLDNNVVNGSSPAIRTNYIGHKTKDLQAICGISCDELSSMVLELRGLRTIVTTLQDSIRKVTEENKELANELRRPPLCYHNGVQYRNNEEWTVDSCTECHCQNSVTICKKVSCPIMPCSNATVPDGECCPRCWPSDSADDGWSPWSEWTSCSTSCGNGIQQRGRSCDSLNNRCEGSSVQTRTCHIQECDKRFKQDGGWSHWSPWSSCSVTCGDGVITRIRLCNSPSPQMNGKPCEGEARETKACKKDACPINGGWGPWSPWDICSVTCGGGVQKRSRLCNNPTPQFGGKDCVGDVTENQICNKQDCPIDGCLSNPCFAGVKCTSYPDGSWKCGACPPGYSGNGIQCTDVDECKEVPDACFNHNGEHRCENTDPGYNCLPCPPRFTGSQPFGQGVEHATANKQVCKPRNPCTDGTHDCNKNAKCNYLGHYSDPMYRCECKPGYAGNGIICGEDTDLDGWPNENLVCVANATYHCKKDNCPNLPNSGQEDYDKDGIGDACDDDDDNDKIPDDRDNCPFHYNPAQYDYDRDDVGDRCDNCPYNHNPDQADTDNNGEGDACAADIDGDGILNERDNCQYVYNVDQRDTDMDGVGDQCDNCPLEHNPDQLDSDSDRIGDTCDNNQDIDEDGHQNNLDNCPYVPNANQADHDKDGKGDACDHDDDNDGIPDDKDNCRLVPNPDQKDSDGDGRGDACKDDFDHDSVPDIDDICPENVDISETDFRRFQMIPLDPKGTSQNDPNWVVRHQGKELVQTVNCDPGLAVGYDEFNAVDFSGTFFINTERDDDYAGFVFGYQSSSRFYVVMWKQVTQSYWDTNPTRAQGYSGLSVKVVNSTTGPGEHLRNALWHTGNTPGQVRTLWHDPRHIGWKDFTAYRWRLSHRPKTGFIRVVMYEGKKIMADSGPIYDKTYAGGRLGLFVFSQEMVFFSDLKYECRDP
Sequence of TSP-1 protein expressed by PMA-differentiated THP-1 macrophage-like cells (P07996 19-1170 limits assumed): as above

Binder | Mean (relative fluorescence intensity), 293-TGFβ Res reporter cells [1] | IC50 [2] | Blocking rate (Mean, %) [3]
B1 | 0.79 ratio to negative control | – | –
B2 | 0.57 ratio to negative control | 10.6 µM | 32.6%
B3 | 0.68 ratio to negative control | 3.4 µM | 53.8%
B4 | 0.69 ratio to negative control | 1.4 µM | 56.1%
B5 | 0.73 ratio to negative control | 7.4 µM | 33%
B6 | 0.77 ratio to negative control | 7.7 µM | 37.5%
B7 | 0.52 ratio to negative control | 5.96 µM | 46%
B8 | 0.65 ratio to negative control | 12.7 µM | 17.7%
B9 | 0.7 ratio to negative control | 4.76 µM | 27.9%
B10 | – | 22.9 µM | 22.8%
B11 | 0.7 ratio to negative control | – | –
B12 | 0.83 ratio to negative control | – | –
B13 | 0.74 ratio to negative control | 7.2 µM | 40.9%
B14 | 0.67 ratio to negative control | 14.3 µM | 21.4%
B15 | 0.78 ratio to negative control | – | –
B16 | 0.8 ratio to negative control | – | –
B17 | – | 10.1 µM | 30.2%
B18 | – | 11.7 µM | 29.7%
B19 | 0.84 ratio to negative control | 10.6 µM | 23.4%
B20 | 0.83 ratio to negative control | 4.85 µM | 23.1%
B21 | 0.77 ratio to negative control | – | –
B22 | – | 5.65 µM | 30.6%
B23 | 0.67 ratio to negative control | – | –
B24 | 0.62 ratio to negative control | – | –

Reference: patent publication US20250388623A1 (CHENGDU BRILLIANT INSPIRATION BIOTHERAPEUTICS, published 2025)
